Assay results from the supplement of paper PMC7877785.
± gives the uncertainty stated by the source.

Test: self-splicing fitness, log relative to wild type (ln ratio); higher = more splicing; Tetrahymena group I intron in knt gene, E. coli kanamycin selection, DiMSum; sequences stand for … in CUCUCU…GGAGGGAAAAGUUAUCAGGCAUGCACCUGGUAGCUAGUCUUUAAACCAAUAGAUUGCAUCGGUUUAAAAGGCAAGACCGUCAAAUUGCGGGAAAGGGGUCAACAGCCGUUCAGUACCAAGUCUCAGGGGAAACUUUGAGAUGGCCUUGCAAAGGGUAUGGUAAUAAGCUGACGGACAUGGUCCUAACCACGCAGCCAAGUCCUAAGUCAACAGAUCUUCUGUUGAUAUGGAUGCAGUUCACAGACUAAAUGUCGGUCGGGGAAGAUGUAUUCUUCUCAUAAGAUAUAGUCGGACCUCUCCUUAAUGGGAGCUAGCGGAUGAAGUGAUGCAACACUGGAGCCGCUGGGAACUAAUUUGUAUGCGAAAGUAUAUUGAUUAGUUUUGGAGUACUCGUGGUCG
Procedure, shortened: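 Library with all eight P1ex-region intron nucleotides randomised, intron inside the knt kanamycin-resistance gene on pET-22b(+), in E. coli BL21(DE3). Cells grew overnight at 37°C or 30°C on LB agar with or without 25 μg/mL kanamycin (plus 100 μg/mL carbenicillin, 50 μM IPTG, 0.2% rhamnose), in six replicate transformations. Pooled colonies were amplicon-sequenced on Illumina HiSeq 2500. DiMSum fitness is the error-weighted combination of wild-type-normalised replicate fold changes, kanamycin versus none.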

Sequence	self-splicing fitness (ln) (30 °C)	self-splicing fitness (ln) (37 °C)
AUGGAGCAAUAUUACGAAUU	-3.14 ± 0.47	-1.14 ± 0.25
AUGGAGCAAUAUUACGAGAU	-3.73 ± 0.28	-1.96 ± 0.2
AUGGAGCAAUAUUACGAUGA	-2.98 ± 0.41	-1.36 ± 0.46
AUGGAGCAAUAUUACGCUGC	–	-2.95 ± 0.38
AUGGAGCAAUAUUACGCUUG	-1.46 ± 0.12	-0.294 ± 0.12
AUGGAGCAAUAUUACGGAUC	-2.51 ± 0.25	-2.57 ± 0.36
AUGGAGCAAUAUUACGGCAC	-1.14 ± 0.37	-0.0162 ± 0.42
AUGGAGCAAUAUUACGGCCU	-1.32 ± 0.19	-0.862 ± 0.24
AUGGAGCAAUAUUACGGGAA	-2.71 ± 0.2	-2.33 ± 0.17
AUGGAGCAAUAUUACGGGCU	–	-1.55 ± 0.41
AUGGAGCAAUAUUACGUAAA	-3.85 ± 0.26	-2.09 ± 0.26
AUGGAGCAAUAUUACGUAAU	-0.694 ± 0.15	-0.189 ± 0.12
AUGGAGCAAUAUUACGUAGU	-2.7 ± 0.11	-1.62 ± 0.097
AUGGAGCAAUAUUACGUCUA	-1.38 ± 0.23	-0.778 ± 0.19
AUGGAGCAAUAUUACGUCUG	-2.81 ± 0.24	-2.04 ± 0.25
AUGGAGCAAUAUUACGUGAA	-2.92 ± 0.27	-2.03 ± 0.42
AUGGAGCAAUAUUACGUUCG	-1.89 ± 0.14	-0.826 ± 0.19
AUGGAGCAAUAUUACGUUUU	-3.1 ± 0.36	-2.05 ± 0.31
AUGUAGCAAUAUUACGAAAA	-0.961 ± 0.34	-0.547 ± 0.31
AUGUAGCAAUAUUACGAACG	-1.27 ± 0.13	-0.894 ± 0.16
AUGUAGCAAUAUUACGAAGG	-3.73 ± 0.34	-2.61 ± 0.3
AUGUAGCAAUAUUACGAGCA	-1.07 ± 0.11	-1.07 ± 0.12
AUGUAGCAAUAUUACGAGGC	–	-1.47 ± 0.28
AUGUAGCAAUAUUACGAGUG	-2.52 ± 0.12	-2.72 ± 0.18
AUGUAGCAAUAUUACGAUAA	-1.76 ± 0.13	-1 ± 0.15

Sequence	self-splicing fitness (ln) (30 °C)	self-splicing fitness (ln) (37 °C)
AUGUAGCAAUAUUACGAUAC	-3.33 ± 0.28	-1.82 ± 0.21
AUGUAGCAAUAUUACGAUGC	-1.49 ± 0.11	-0.827 ± 0.16
AUGUAGCAAUAUUACGCAAC	-2.69 ± 0.45	-0.382 ± 0.27
AUGUAGCAAUAUUACGCACG	-1.02 ± 0.11	0.147 ± 0.14
AUGUAGCAAUAUUACGCAGC	-2.64 ± 0.37	-0.433 ± 0.17
AUGUAGCAAUAUUACGCAUA	-2.46 ± 0.28	-1.85 ± 0.26
AUGUAGCAAUAUUACGCCUA	-0.493 ± 0.17	0.198 ± 0.23
AUGUAGCAAUAUUACGCGGG	-4.31 ± 0.33	-2.37 ± 0.2
AUGUAGCAAUAUUACGCUCU	-1.95 ± 0.13	-0.655 ± 0.17
AUGUAGCAAUAUUACGGACA	-0.611 ± 0.083	0.202 ± 0.12
AUGUAGCAAUAUUACGGAUA	-1.43 ± 0.16	-1.83 ± 0.28
AUGUAGCAAUAUUACGGCAC	-1.59 ± 0.18	0.329 ± 0.18
AUGUAGCAAUAUUACGGCUG	-1.95 ± 0.14	-2.27 ± 0.28
AUGUAGCAAUAUUACGGGAU	-1.9 ± 0.12	-1.33 ± 0.2
AUGUAGCAAUAUUACGUAAU	-1.21 ± 0.11	-0.524 ± 0.12
AUGUAGCAAUAUUACGUCCG	-2.71 ± 0.13	-1.39 ± 0.12
AUGUAGCAAUAUUACGUCUA	-1.25 ± 0.14	-0.893 ± 0.15
AUGUAGCAAUAUUACGUGUC	-3.79 ± 0.31	-2.81 ± 0.26
AUGUAGCAAUAUUACGUUGA	-3.43 ± 0.29	-1.35 ± 0.22
AUGUAGCAAUAUUACGUUUA	-2.38 ± 0.13	-1.86 ± 0.12
AUUAAGCAAUAUUACGAAUA	-1.29 ± 0.21	-0.938 ± 0.21
AUUAAGCAAUAUUACGAGAA	–	-1.08 ± 0.38
AUUAAGCAAUAUUACGAGAU	-2.99 ± 0.21	-1.47 ± 0.16
AUUAAGCAAUAUUACGAGCU	-0.659 ± 0.14	-0.821 ± 0.2
AUUAAGCAAUAUUACGAGUU	-2.42 ± 0.17	-1.27 ± 0.22

Sequence	self-splicing fitness (ln) (30 °C)	self-splicing fitness (ln) (37 °C)
AUUAAGCAAUAUUACGCGCG	-0.63 ± 0.13	-0.752 ± 0.17
AUUAAGCAAUAUUACGCGGC	–	-2.33 ± 0.31
AUUAAGCAAUAUUACGCUGU	-3.23 ± 0.16	-1.97 ± 0.19
AUUAAGCAAUAUUACGCUUU	-2.38 ± 0.24	-1.24 ± 0.32
AUUAAGCAAUAUUACGGCUG	-0.405 ± 0.083	-0.233 ± 0.1
AUUAAGCAAUAUUACGGGGU	-4.11 ± 0.24	-2.83 ± 0.2
AUUAAGCAAUAUUACGGUUA	-1.18 ± 0.095	-1.19 ± 0.085
AUUAAGCAAUAUUACGUAAG	-0.562 ± 0.12	-0.864 ± 0.19
AUUAAGCAAUAUUACGUCUG	-1.74 ± 0.11	-0.762 ± 0.12
AUUAAGCAAUAUUACGUGAU	-1.74 ± 0.089	-1.34 ± 0.12
AUUAAGCAAUAUUACGUGCA	-1.03 ± 0.089	-0.282 ± 0.11
AUUAAGCAAUAUUACGUGUC	-3.58 ± 0.21	-1.02 ± 0.16
AUUCAGCAAUAUUACGAAUG	-1.54 ± 0.11	-0.673 ± 0.13
AUUCAGCAAUAUUACGACAA	-0.461 ± 0.15	-0.889 ± 0.19
AUUCAGCAAUAUUACGACUC	-0.805 ± 0.19	0.11 ± 0.19
AUUCAGCAAUAUUACGAGAU	-2.7 ± 0.17	-0.722 ± 0.13
AUUCAGCAAUAUUACGCCUC	-1.43 ± 0.15	0.286 ± 0.16
AUUCAGCAAUAUUACGCGUG	-1.25 ± 0.054	-0.218 ± 0.069
AUUCAGCAAUAUUACGGCUA	0.293 ± 0.09	-0.022 ± 0.084
AUUCAGCAAUAUUACGUAAA	-0.737 ± 0.08	-0.148 ± 0.12
AUUCAGCAAUAUUACGUAGG	-1.64 ± 0.13	-0.941 ± 0.17
AUUCAGCAAUAUUACGUCUG	-2.09 ± 0.11	-1.33 ± 0.11
AUUCAGCAAUAUUACGUGAU	-0.92 ± 0.061	-0.187 ± 0.078
AUUCAGCAAUAUUACGUUCU	-0.926 ± 0.074	-0.163 ± 0.1
AUUCAGCAAUAUUACGUUGU	-3.14 ± 0.15	-2.3 ± 0.21

Sequence	self-splicing fitness (ln) (30 °C)	self-splicing fitness (ln) (37 °C)
AUUCAGCAAUAUUACGUUUA	-1.18 ± 0.12	-0.911 ± 0.11
AUUGAGCAAUAUUACGAAAC	-2.48 ± 0.45	–
AUUGAGCAAUAUUACGAACU	-1.9 ± 0.23	-0.643 ± 0.2
AUUGAGCAAUAUUACGACAU	-0.372 ± 0.013	-0.153 ± 0.033
AUUGAGCAAUAUUACGACGG	-4.09 ± 0.31	-3.4 ± 0.26
AUUGAGCAAUAUUACGAGAA	-2.35 ± 0.45	-2.62 ± 0.26
AUUGAGCAAUAUUACGAUAA	–	-2.14 ± 0.4
AUUGAGCAAUAUUACGAUAG	-4.02 ± 0.28	-3.03 ± 0.3
AUUGAGCAAUAUUACGCGCG	-3.04 ± 0.21	-2.22 ± 0.16
AUUGAGCAAUAUUACGCUGA	-3.1 ± 0.36	-2.27 ± 0.29
AUUGAGCAAUAUUACGGGAA	-3.22 ± 0.37	-3.86 ± 0.46
AUUGAGCAAUAUUACGGGGU	-3.33 ± 0.25	-3.44 ± 0.27
AUUGAGCAAUAUUACGGUUU	-3.23 ± 0.21	-2.16 ± 0.22
AUUGAGCAAUAUUACGUAUG	-3.63 ± 0.46	–
AUUGAGCAAUAUUACGUGAA	-2.5 ± 0.15	-1.74 ± 0.27
AUUGAGCAAUAUUACGUGCA	-2.91 ± 0.15	-1.85 ± 0.14
AUUGAGCAAUAUUACGUGGA	-2.87 ± 0.26	-1.61 ± 0.21
AUUGAGCAAUAUUACGUUCA	-1.59 ± 0.17	-0.11 ± 0.17
AUUGAGCAAUAUUACGUUUC	–	-2.57 ± 0.48
AUUUAGCAAUAUUACGAAAU	-2 ± 0.31	-1.54 ± 0.27
AUUUAGCAAUAUUACGAGAG	–	-2.7 ± 0.3
AUUUAGCAAUAUUACGAUGU	-1.08 ± 0.096	0.369 ± 0.11
AUUUAGCAAUAUUACGCCUA	-1.24 ± 0.2	0.0334 ± 0.19
